Measurements taken from article PMC11048174.

What was measured:
[1] = target: Avidin (obtained from egg white) (UniProt P02701); test: SPR; MWCNT-Av deposited on a gold disk; 0.50 mg mL^-1 bLOx or LOx injected manually, batch conditions, 25 °C; amount from the change of the resonance angle after washing with phosphate buffer
[2] = target: Avidin (obtained from egg white) (UniProt P02701); test: electrochemical impedance spectroscopy; MWCNT-Av on glassy carbon electrode, incubated with bLOx or LOx; charge transfer resistance of hydroquinone/benzoquinone at 0.050 V, 0.050 M phosphate buffer pH 7.40

UniProt P02701, sequence (P02701 25-152): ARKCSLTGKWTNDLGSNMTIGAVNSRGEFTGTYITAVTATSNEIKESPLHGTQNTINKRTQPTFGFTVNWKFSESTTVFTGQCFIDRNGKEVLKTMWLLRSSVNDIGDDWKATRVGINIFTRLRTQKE

“recombinant biotinylated lactate oxidase (enzyme)” was tested. Which amount immobilised (from the SPR angle change) [1] did it give?
The amount immobilised (from the SPR angle change) was 2600 pg mm^−2.

And the RCT (charge transfer resistance) after interaction [2]?
Its RCT (charge transfer resistance) after interaction is 200 Ω.
